# Measurements published in patent US20120316113A1, “FGF BASED FIBRIN BINDING PEPTIDES” (Baxter Healthcare S.A., priority 2011, published 2012).
# Experiments:
# fibrin clots = biological target: T1, fibrin clots (Homo sapiens, UniProt P02671+P02675+P02679); experiment: Stability of fibrin clots with aprotinin covalently bound through FS-anchors; assay type: biochemical; conditions: aprotinin EDC-coupled to the FS-anchor, clots kept in PBS at 37° C., after 5 days; compared with His-FGF-2 and pep1 anchors
# T1 sequence (P02671 36-866 limits assumed): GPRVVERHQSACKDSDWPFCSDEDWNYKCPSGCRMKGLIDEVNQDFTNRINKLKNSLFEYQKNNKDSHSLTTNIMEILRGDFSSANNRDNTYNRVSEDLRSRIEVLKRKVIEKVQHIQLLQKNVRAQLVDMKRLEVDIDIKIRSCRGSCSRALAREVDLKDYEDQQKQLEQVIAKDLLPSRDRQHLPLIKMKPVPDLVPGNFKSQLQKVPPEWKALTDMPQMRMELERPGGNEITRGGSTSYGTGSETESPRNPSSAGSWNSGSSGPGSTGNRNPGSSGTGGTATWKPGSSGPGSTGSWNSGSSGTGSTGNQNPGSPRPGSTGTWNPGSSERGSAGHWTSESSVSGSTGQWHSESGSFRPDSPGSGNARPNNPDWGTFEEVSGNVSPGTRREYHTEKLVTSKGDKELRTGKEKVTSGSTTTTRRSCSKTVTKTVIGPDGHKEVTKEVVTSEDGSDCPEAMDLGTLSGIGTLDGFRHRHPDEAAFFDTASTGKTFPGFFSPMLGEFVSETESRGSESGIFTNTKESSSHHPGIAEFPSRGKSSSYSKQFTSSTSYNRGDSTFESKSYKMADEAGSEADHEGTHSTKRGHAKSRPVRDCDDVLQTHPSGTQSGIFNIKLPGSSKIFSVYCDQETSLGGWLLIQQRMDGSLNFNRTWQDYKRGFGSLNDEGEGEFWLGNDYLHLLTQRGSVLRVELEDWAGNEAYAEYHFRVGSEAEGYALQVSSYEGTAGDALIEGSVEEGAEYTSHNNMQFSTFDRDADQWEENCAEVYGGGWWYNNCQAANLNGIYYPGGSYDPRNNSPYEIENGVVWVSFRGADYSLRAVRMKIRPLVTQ
# T1 sequence (P02675 45-491 limits assumed): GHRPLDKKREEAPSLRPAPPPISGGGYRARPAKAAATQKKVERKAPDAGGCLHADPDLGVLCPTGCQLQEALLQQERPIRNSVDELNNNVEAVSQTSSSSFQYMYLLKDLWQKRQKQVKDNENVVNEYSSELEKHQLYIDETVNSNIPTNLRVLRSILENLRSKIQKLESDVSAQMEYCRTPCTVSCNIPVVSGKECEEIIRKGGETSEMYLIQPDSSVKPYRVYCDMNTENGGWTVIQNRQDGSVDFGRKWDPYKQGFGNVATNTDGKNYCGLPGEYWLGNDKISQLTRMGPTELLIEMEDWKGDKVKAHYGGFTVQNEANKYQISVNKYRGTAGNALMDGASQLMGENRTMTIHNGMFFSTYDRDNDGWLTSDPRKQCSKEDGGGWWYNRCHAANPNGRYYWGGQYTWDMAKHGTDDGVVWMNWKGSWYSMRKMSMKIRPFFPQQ
# T1 sequence (P02679 27-453): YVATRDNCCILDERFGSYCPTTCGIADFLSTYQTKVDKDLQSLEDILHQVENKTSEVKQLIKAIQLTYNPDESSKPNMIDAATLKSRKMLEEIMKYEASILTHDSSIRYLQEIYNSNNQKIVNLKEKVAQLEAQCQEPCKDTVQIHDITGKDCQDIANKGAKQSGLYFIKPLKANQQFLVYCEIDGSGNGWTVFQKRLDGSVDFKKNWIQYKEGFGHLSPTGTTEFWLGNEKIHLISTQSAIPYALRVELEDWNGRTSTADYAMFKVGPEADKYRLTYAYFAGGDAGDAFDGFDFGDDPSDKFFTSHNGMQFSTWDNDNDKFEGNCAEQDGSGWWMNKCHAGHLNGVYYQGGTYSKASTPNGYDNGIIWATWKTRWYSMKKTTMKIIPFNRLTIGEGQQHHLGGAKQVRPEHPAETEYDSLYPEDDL
# Source text: Aprotinin was successfully covalently bound to one FS-anchor (His-FGF-2, pep1 (68 an), pep3 (37 aa) and pep4 (28 aa)) using a standard protocol for 1-ethyl-3-(3-dimethylaminopropyl)carbodiimide) (EDC) coupling (FIG. 8A). For a positive control recombinant human FGF-2 (ProSpec Tany, Israel) and for a negative control phosphate buffered saline (PBS) were used. Covalently linked to a FS-anchor and purified aprotinin was mixed with fibrinogen and finally with thrombin to form fibrin clots. These fibrin clots were kept in PBS at 37° C. to observe stability and degradation of fibrin.
# fibrin = biological target: T2, fibrin (Homo sapiens, UniProt P02671+P02675+P02679); experiment: Fibrin binding assay by ELISA; conditions: fibrinogen-coated plate incubated with 10 I.U./ml thrombin, various concentrations
# T2 construct: an activity for processing fibrinogen to fibrin, preferably a thrombin preparation; purchased Baxter AG, Vienna (Tisseel fibrinogen and Tisseel thrombin)
# T2 sequence (P02671 36-866 limits assumed): T1 sequence (P02671 36-866 limits assumed)
# T2 sequence (P02675 45-491 limits assumed): T1 sequence (P02675 45-491 limits assumed)
# T2 sequence (P02679 27-453): T1 sequence (P02679 27-453)
# Experimental: A polystyrene 96-well plate (Nunc® Maxisorp EUSA-plates) was coated with 1 mg/ml fibrinogen (Tisseel®, Baxter AG, Vienna) overnight at 4° C. and then blocked with blocking solution (PBS+1% BSA) for 2 hours at room temperature CRT). After washing three times with PBS, purified peptides were added in various dilutions to the plate and incubated for 1 hour at RT. After the three times washing with PBS, a monoclonal anti-His6-peroxidase antibody (Sigma-Aldrich, Vienna), diluted in PBS+0.1% Tween (Sigma-Aldrich, Vienna) was added and incubated for 1 hour at RT. Finally, the plate was washed three times with PBS again and wells were incubated with o-phenylenediaminehydrochlorid substrate. Absorbance was measured at 492 nm and 620 nm. For fibrin binding analysis, the plate was first coated with fibrinogen overnight at 4° C. and then incubated with 10 I.U./ml thrombin (Tisseel, Baxter AG, Vienna) for 30 minutes at 37° C. The following procedure was the same as described above. […] The signals were detected and recorded at the Reichert SR7000 Surface Plasmon Resonance Analytical Instrument (Reichert Analytical, NY, USA). […]
Sequence,stability of fibrin clots (fibrin clots),binding affinity to fibrin (fibrin)
"EDGRLLASKCVTDECFFFERLESNNYNTYRSRHHHHH (EDGRLLASKCVTDECFFFERLESNNYNTYRSRHHHHH; synthetic peptide pep 3 (37 aa), peptide #3, pep3 with C-terminus 5x HIS-tag) [also expressed recombinantly]",higher stability,
"FERLESNNYN TYRSRHHHHH (FERLESNNYNTYRSRHHHHH; synthetic peptide pep 5 (20 aa), peptide #5, pep5 with C-terminus 5x HIS-tag)",,little binding affinity
"KCVTDECFFFERLESNNYNTYRSRHHHHH (KCVTDECFFFERLESNNYNTYRSRHHHHH; synthetic peptide pep 4 (29 aa), peptide #4, pep4 with C-terminus 5x HIS-tag)",higher stability,
